Key:
Assay in all cases: ELISA, lectin-captured E1E2 lysate, Ab 1 ug/ml;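 also: E1E2 captured on Galanthus nivalis lectin-coated plates, bound test antibody read out by an HRP-linked secondary antibody and TMB colour development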
[1] = biological target: E1E2 complex (H77) with E1 mutation Q289A (HCV genotype 1a, isolate H77, UniProt P27958 192-383; P27958 384-746)
[2] = biological target: E1E2 complex (H77) with E1 mutation A269G (HCV genotype 1a, isolate H77, UniProt P27958 192-383; P27958 384-746)
[3] = biological target: E1E2 complex (H77) with E1 mutation W320A (HCV genotype 1a, isolate H77, UniProt P27958 192-383; P27958 384-746)
[4] = biological target: E1E2 complex (H77) with E1 mutation M323A (HCV genotype 1a, isolate H77, UniProt P27958 192-383; P27958 384-746)
[5] = biological target: E1E2 complex (H77) with E1 mutation S236A (HCV genotype 1a, isolate H77, UniProt P27958 192-383; P27958 384-746)
[6] = biological target: E1E2 complex (H77) with E1 mutation G278A (HCV genotype 1a, isolate H77, UniProt P27958 192-383; P27958 384-746)
[7] = biological target: E1E2 complex (H77) with E1 mutation N196A/N325A (HCV genotype 1a, isolate H77, UniProt P27958 192-383; P27958 384-746)
[8] = biological target: E1E2 complex (H77) with E1 mutation N305A/N325A (HCV genotype 1a, isolate H77, UniProt P27958 192-383; P27958 384-746)
[9] = biological target: E1E2 complex (H77) with E1 mutation P228A (HCV genotype 1a, isolate H77, UniProt P27958 192-383; P27958 384-746)
[10] = biological target: E1E2 complex (H77) with E1 mutation V266A (HCV genotype 1a, isolate H77, UniProt P27958 192-383; P27958 384-746)
[11] = biological target: E1E2 complex (H77) with E1 mutation T329A (HCV genotype 1a, isolate H77, UniProt P27958 192-383; P27958 384-746)
[12] = biological target: E1E2 complex (H77) with E1 mutation Y276A (HCV genotype 1a, isolate H77, UniProt P27958 192-383; P27958 384-746)
[13] = biological target: E1E2 complex (H77) with E1 mutation S211A (HCV genotype 1a, isolate H77, UniProt P27958 192-383; P27958 384-746)
[14] = biological target: E1E2 complex (H77) with E1 mutation N305A/N209A (HCV genotype 1a, isolate H77, UniProt P27958 192-383; P27958 384-746)
[15] = biological target: E1E2 complex (H77) with E1 mutation L258A (HCV genotype 1a, isolate H77, UniProt P27958 192-383; P27958 384-746)
[16] = biological target: E1E2 complex (H77) with E1 mutation G311A (HCV genotype 1a, isolate H77, UniProt P27958 192-383; P27958 384-746)
[17] = biological target: E1E2 complex (H77) with E1 mutation F291A (HCV genotype 1a, isolate H77, UniProt P27958 192-383; P27958 384-746)
[18] = biological target: E1E2 complex (H77) with E1 mutation W326A (HCV genotype 1a, isolate H77, UniProt P27958 192-383; P27958 384-746)
[19] = biological target: E1E2 complex (H77) with E1 mutation P244A (HCV genotype 1a, isolate H77, UniProt P27958 192-383; P27958 384-746)
[20] = biological target: E1E2 complex (H77) with E1 mutation N196A/N234A (HCV genotype 1a, isolate H77, UniProt P27958 192-383; P27958 384-746)
[21] = biological target: E1E2 complex (H77) with E1 mutation S198A (HCV genotype 1a, isolate H77, UniProt P27958 192-383; P27958 384-746)
[22] = biological target: E1E2 complex (H77) with E1 mutation S294A (HCV genotype 1a, isolate H77, UniProt P27958 192-383; P27958 384-746)

B1: N4 IgG (antibody, V domains shown)
VH: VQLLEQSGPEVKKPGDSLRISCKMSGDSLVTTWIGWVRQKPGQGLEWMGIINPGDSSTNIYPGDSATRYGPSFQGQVTISIDKSTSTAYLQWNNVKASDTGIYYCARHVPVPISGTFLWREREMHDFGYFDDWGQGTLVIVSS
VL: ELTLTQSPGTLSLSPGERATLSCRASQSVSNNYLAWYQQKPGQAPRLLIYGASSRATGIPDRFSGSGSGTGFTLIISRLEPEDFAVYYCQQYGSSSITFGQGTRLEIKR
notes: also called IgG N4
[1]
  Binding relative to wt (%): 94%
[2]
  Binding relative to wt (%): 55%
[3]
  Binding relative to wt (%): 121%
[4]
  Binding relative to wt (%): 99%
[5]
  Binding relative to wt (%): 81%
[6]
  Binding relative to wt (%): 68%
[7]
  Binding relative to wt (%): 54%
[8]
  Binding relative to wt (%): 74%
[9]
  Binding relative to wt (%): 38%
[10]
  Binding relative to wt (%): 92%
[11]
  Binding relative to wt (%): 114%
[12]
  Binding relative to wt (%): 103%
[13]
  Binding relative to wt (%): 93%
[14]
  Binding relative to wt (%): 17%
[15]
  Binding relative to wt (%): 89%
[16]
  Binding relative to wt (%): 87%
[17]
  Binding relative to wt (%): 131%
[18]
  Binding relative to wt (%): 125%
[19]
  Binding relative to wt (%): 95%
[20]
  Binding relative to wt (%): 32%
[21]
  Binding relative to wt (%): 78%
[22]
  Binding relative to wt (%): 71%

Source: US20110311550A1 (Scripps Research, published 2011)
